Laboratory results: the supplement of paper PMC9732359
± gives the uncertainty stated by the source.

Experiment: protein stability index of a GFP-peptide fusion (yeast GPS) (PSI 1-4); higher = more stable; sorted into four equal gates, so the index is relative within each strain
How it was run: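 Yeast carrying a pooled library were grown to mid-log phase in leucine-free medium. Each library plasmid expresses Cherry and has a tiled 17-residue yeast protein peptide fused downstream of GFP. Cells were sorted into four equal gates by GFP/Cherry ratio, and plasmids from each gate were PCR-amplified, Illumina-sequenced and assigned to strains by barcode. Summing, across gates, the read frequency times the gate number gave each peptide's protein stability index.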

Row | Sequence | protein stability index (doa10∆) | protein stability index (pdr5∆) | protein stability index (san1∆) | protein stability index (ubr1∆)
1 | QLVPIRLEFDQDRDRFF [SNF5] | 3.14 ± 0.13 | 2.98 ± 0.16 | 2.98 ± 0.24 | 3.1 ± 0.078
2 | IKILGSEGYQKTFSRLD [RPN4] | 1.28 ± 0.089 | 1.55 ± 0.15 | 1.05 ± 0.24 | –
3 | VTFSVMPPKKSWRNITN [SMC4] | 2 ± 0.11 | 2.45 ± 0.15 | 2.23 ± 0.19 | 2.82 ± 0.14
4 | QRGEDDLTFKLADILKA [RPO21] | 2.34 ± 0.082 | 2.61 ± 0.1 | 2.45 ± 0.066 | 2.1 ± 0.046
5 | EAASITRKSLNNAVRFS [ECM29] | 2.59 ± 0.081 | 2.88 ± 0.084 | 2.86 ± 0.055 | 2.97 ± 0.048
6 | LAGKRGPKSGSTMGTPT [PGD1] | 3.35 ± 0.061 | 2.95 ± 0.05 | 2.6 ± 0.096 | 3.19 ± 0.046
7 | KSIIGKLTAERANLRKY [POP1] | 2.72 ± 0.059 | 2.92 ± 0.081 | 2.8 ± 0.07 | 2.6 ± 0.074
8 | EENFEATRTLVASIQND [YCG1] | 3.03 ± 0.16 | 3.24 ± 0.11 | 3 ± 0.14 | 2.71 ± 0.14
9 | KLALGIALEGYRLDIIE [RPN2] | 2.51 ± 0.15 | 1.77 ± 0.11 | – | 2.19 ± 0.083
10 | VQIKDVNDRYQIPTPNN [CSI1] | 1.72 ± 0.05 | 2.25 ± 0.064 | 1.75 ± 0.12 | 1.73 ± 0.049
11 | DTLKDISTSFCFICLLH [BRN1] | 2.01 ± 0.081 | 2.44 ± 0.072 | 2.27 ± 0.14 | 1.95 ± 0.083
12 | LQVADKFFRVKYENKIS [SMC3] | 2.14 ± 0.073 | 2.3 ± 0.05 | 1.67 ± 0.092 | 1.52 ± 0.03
13 | VRVQFQFTGFLLHEMTQ [GRR1] | 1.83 ± 0.067 | 2.08 ± 0.061 | 1.91 ± 0.074 | 1.85 ± 0.053
14 | KGSRFISTLQVKLYGRE [RPB2] | 2.06 ± 0.065 | 2.3 ± 0.057 | 2.58 ± 0.089 | 2.37 ± 0.056
15 | ERRVLLSAPLSKELRAQ [RPL26B] | 2.87 ± 0.07 | 2.9 ± 0.047 | 2.89 ± 0.055 | 2.79 ± 0.043
16 | GEQIIVHPVNEREPVPL [RRP45] | 2.85 ± 0.12 | 3.35 ± 0.12 | – | 2.9 ± 0.17
17 | PKFFLGEENRVRFIGDS [QCR2] | 3.17 ± 0.1 | 3.15 ± 0.11 | 3.07 ± 0.073 | 3.2 ± 0.069
18 | GKLEVPGYVDIVKTSSG [RPS19A] | 3.38 ± 0.15 | 2.85 ± 0.092 | 3.19 ± 0.07 | 3.2 ± 0.06
19 | KKMMNTLVHTRVKIANT [SSN2] | 2.69 ± 0.066 | 2.35 ± 0.05 | 2.67 ± 0.041 | 2.78 ± 0.033
20 | DPDIPMTIDLEPIEESS [IRR1] | 3.06 ± 0.086 | 3.45 ± 0.1 | 3.01 ± 0.13 | 3.15 ± 0.11
21 | YEKAQKDLENAQVEMKS [SMC1] | 3.11 ± 0.11 | 3.29 ± 0.084 | 3.31 ± 0.052 | 3.3 ± 0.08
22 | EISKKDFVRKGGLQKGK [SIR3] | 2.38 ± 0.11 | 1.91 ± 0.083 | 1.98 ± 0.11 | 1.95 ± 0.092
23 | SLLNLLNISPFTFGLTV [RPP0] | 1.79 ± 0.049 | 1.91 ± 0.049 | 1.56 ± 0.078 | 1.84 ± 0.044
24 | EEIVSNSSRFSDPMLQR [YCS4] | 3.07 ± 0.096 | 2.95 ± 0.082 | 3.28 ± 0.096 | 3.07 ± 0.056
25 | AAKPDNLANFSNEVAMN [SWP82] | 3.32 ± 0.11 | 3.22 ± 0.088 | 3.15 ± 0.056 | 3.23 ± 0.067
26 | LRSTENGIVDQVLVTTN [RPB2] | 2.39 ± 0.095 | 2.03 ± 0.11 | 2.46 ± 0.099 | 1.82 ± 0.055
